Here are results for nine sequences from the DeepSol protein solubility set.

This series can be described thus: soluble on expression in E. coli; label from the status in PepcDB or PDB records.
Take “DIINFFKQITDHEPYDYQIRAWEKINKIMELGGRVVIEIPTAGGKTEAAIIPYLYQFISNDWKVPRLIYVLPTRSLVEKQVERIRNYIKKILEIKGYSKDKVEELAKKIVQVEYGLEETHAFLGFVVLTTWDTFLYGLAAHRTVGDRFTFPCGAIAQSLVVFDEIQMYQDESLYMPRLIGLVVKRLVEANVPLVFMTATLPTELKKILGIHDEEPITVNPEDT”: the “soluble on expression in E. coli” value is “not soluble”.

With “MNNLIRLRDGVAEVCRDDPWQLLRELPDALPPGPLLLPLAAWLERRGEAGAAAPWLAPDDEVEALLPHFAELPLIAVDFPSFRDGRGYSLAYLLRVRLGWSGELRAVGDVLRDQLSHMRQCGFDAFAVREDKNVEDALKGLAGLSVLYGRSAIEPRPLFRRR”, the “soluble on expression in E. coli” value is “not soluble”.

For “MGSDKIHHHHHHVGTVNVRSGRMRYFTNRDAPLDVEHVMAPAAFPPGFPAVRLEAESYWDGGIYSNTPLEAVLDDRPRRDSVIFSVQLWPSSGPEPESILQVMSRQRDIQYSSRAESHLDRQKQIHRLRHVIRELGQHLPEEQRNAPAVRELLDWGCGTTMQVLELDAPAFDNDDLNRDIDFSSAGIERRWRAGYEDTARLLKLAPWRETLDPMEGISVFRMASAESRK”, the “soluble on expression in E. coli” value is “not soluble”.

With “MLKVDGIDVFYGNIHALKGVSLEVNKGEIVTLIGANGAGKTTLLKTISGLLRPKNGDIVYEGASIAGKAAQTIVKQGISHVPEGRRVFANMTVEENLELGAFLRKDKEGIQQDFAKVFQLFPRLEERRKQLAGTLSGGEQQMLAIGRALMARPKLLLLDEPSMGLAPLLVKTIFRIIQEINESGTTILLVEQNAHMALSIAHRAYVLESGRVVLSGTASELQASEQVKQAYLGGH”, the “soluble on expression in E. coli” value was “soluble”.

Turning to “MGSDKIHHHHHHMKKVERINTIMRYINNRSHFTISEIIREFNISRSTAIRDIREIEAMGMPLVAEVGRSGGYFVMHNSILPVVRFTDNEVKALFIAFMATRNQQLPYLKSRQSLAEKLLGLISETQQDDLVLLNQLLLFEGTNPHNPDLLELSDLPHPMLEKLIQILLLDRYLLITVKEEIKSYPIYLLHLYKEKSYWIIEGFDLKEEKKLMFPVDDLINIEPYTPKKRLHKKQILERLSKKDEAINLVFELGPKAIAQFKKYHPFKVSISYTNPYQSTAILKTFIDVHNSDEVTEMTNWLLFLGKDITIKEMPEEVLKDLQERLCLYTP”, the “soluble on expression in E. coli” value is recorded as “not soluble”.

For the sequence “MKIAGIDEAGRGPVIGPMVIAAVVVDENSLPKLEELKVRDSKKLTPKRREKLFNEILGVLDDYVILELPPDVIGSREGTLNEFEVENFAKALNSLKVKPDVIYADAADVDEERFARELGERLNFEAEVVAKHKADDIFPVVSAASILAKVTRDRAVEKLKEEYGEIGSGYPSDPRTRAFLENYYREHGEFPPIVRKGWKTLKKIAEKVESEKTQDMINKST”, the “soluble on expression in E. coli” value is “soluble”.

Turning to “DAAGVSEVEVEATEIENLKAELSEMEDKFLRARAEIANMSNRNKNERELLVRYRSQDLGKKILPSIDNLERAMAIEVSDEQGESLKKGISMVLESITVALKEEG”, the “soluble on expression in E. coli” value is “not soluble”.

For the sequence “MGSDKIHHHHHHMKQDTIHINGLSIGYHSKSSTKLVAKGIHSTIYSGELTCLLGANGVGKSTLLRTLSAFQPKLDGEILVLGKDIDTYSDKELSTTIGVVLTDKCEIRNMLVRELVGMGRSPYTGFWGKLSKDDKRIVEESIALVRIEELASRMVHTLSDGERQKVMIAKALAQETPVIYLDEPTAFLDFPSKVEIMQLLHHLTRKTNKTIFMSTHDLELALQISDKIWLMDKANGISTGTPEDLALSGHLSNFFARKGIVFDKDTGLFRIDNQFSRQIRLVGHGQKYAMVRKGLQRNGILANREVESNIWIETGDLKTTHFIIHETSGGTYITQTIEELLAYFDTEKS”, the “soluble on expression in E. coli” value is “not soluble”.

Take “MSLTMREVAKAAGVSIKTVSNVVNDYEFVSQATRDKVNKAIAELGYTVNVSARNLRRGQTGIIGLAIPDLQMPYFAQLSSLVIEEAKKVGLRVIVEPTQYSRDGELEALHGSQQMMIDGLIYSPLELGQDDVEQLKVDYPLVLVGERIFTDQVDHIATENVEGAKRATQYLLTTGCRRVAVVGVHPGEKVGSAALRYQGYLEALEEAGVEFDDRLVVESGMWHRSDGVRAMNALLDSGVEVDGVVALNDMLASGVMHAIQMHGLHIPDDISVVGFDNSDDSQYLSPALTSIAPGLEAVARLSVKVLKERIDGRDPNADRPGEKVFRKVASSLVVRQSTKLPIDSLVLEGHHHHHH”: the “soluble on expression in E. coli” value was “not soluble”.
